# Biological target: T1, anm10_arath PRMT10 (UniProt Q9MAT5)
# T1 sequence: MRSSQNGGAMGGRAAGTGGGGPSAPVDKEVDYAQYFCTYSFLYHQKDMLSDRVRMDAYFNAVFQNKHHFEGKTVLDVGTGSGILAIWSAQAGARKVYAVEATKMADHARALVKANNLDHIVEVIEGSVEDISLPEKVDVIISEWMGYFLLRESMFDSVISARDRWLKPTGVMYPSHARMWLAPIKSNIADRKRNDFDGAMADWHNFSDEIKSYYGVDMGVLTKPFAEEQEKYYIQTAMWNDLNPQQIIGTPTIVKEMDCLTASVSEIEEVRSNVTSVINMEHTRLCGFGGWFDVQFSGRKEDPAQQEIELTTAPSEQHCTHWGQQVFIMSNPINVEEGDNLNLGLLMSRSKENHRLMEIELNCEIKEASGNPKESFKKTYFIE
substance,measurement,value
Histone H4 (Bos taurus (Bovine)) (from UniProt P62803) R4L,effect of a mutation on the interaction,decreasing interaction
